# Experimental data: paper PMC4790104 (Analytical chemistry, 2016)
# T1: Ski3 (S. cerevisiae (endogenous in budding …, UniProt P17883 1-1432))
# T1 sequence (looked up): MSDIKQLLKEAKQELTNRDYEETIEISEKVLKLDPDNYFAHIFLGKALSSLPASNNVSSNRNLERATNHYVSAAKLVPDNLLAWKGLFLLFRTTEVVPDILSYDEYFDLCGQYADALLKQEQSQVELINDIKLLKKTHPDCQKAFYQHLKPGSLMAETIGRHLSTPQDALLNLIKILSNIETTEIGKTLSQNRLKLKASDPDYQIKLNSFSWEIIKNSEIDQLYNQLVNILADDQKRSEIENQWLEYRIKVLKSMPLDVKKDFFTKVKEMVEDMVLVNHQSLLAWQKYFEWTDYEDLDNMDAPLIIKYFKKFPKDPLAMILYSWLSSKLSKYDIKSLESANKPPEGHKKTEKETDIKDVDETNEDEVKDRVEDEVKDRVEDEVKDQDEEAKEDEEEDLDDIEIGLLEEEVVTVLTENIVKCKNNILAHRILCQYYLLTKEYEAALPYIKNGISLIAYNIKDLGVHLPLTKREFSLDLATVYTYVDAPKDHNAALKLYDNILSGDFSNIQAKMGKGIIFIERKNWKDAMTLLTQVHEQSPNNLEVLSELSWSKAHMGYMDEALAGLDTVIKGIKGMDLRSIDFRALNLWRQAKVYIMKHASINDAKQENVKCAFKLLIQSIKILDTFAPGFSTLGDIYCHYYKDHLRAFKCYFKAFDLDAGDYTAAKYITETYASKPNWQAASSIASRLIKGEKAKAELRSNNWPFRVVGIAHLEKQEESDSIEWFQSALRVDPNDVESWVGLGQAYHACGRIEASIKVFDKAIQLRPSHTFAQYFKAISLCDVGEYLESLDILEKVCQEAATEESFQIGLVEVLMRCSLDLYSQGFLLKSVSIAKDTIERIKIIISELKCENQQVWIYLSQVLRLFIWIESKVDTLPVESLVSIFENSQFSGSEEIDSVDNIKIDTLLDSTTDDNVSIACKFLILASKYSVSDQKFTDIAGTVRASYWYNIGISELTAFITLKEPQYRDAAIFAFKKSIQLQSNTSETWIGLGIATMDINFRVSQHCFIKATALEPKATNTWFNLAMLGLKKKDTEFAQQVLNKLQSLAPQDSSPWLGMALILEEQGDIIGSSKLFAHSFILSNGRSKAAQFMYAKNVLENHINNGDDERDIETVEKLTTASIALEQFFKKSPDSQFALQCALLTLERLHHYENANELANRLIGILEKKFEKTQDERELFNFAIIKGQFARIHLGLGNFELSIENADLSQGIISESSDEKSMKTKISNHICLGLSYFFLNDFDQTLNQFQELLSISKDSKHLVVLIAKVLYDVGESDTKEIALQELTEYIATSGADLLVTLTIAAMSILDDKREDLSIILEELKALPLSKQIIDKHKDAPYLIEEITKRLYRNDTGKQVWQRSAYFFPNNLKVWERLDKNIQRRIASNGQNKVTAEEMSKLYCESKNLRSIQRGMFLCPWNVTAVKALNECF
# T2: Ski2 (S. cerevisiae (endogenous in budding …, UniProt P35207 1-1287))
# T2 sequence (looked up): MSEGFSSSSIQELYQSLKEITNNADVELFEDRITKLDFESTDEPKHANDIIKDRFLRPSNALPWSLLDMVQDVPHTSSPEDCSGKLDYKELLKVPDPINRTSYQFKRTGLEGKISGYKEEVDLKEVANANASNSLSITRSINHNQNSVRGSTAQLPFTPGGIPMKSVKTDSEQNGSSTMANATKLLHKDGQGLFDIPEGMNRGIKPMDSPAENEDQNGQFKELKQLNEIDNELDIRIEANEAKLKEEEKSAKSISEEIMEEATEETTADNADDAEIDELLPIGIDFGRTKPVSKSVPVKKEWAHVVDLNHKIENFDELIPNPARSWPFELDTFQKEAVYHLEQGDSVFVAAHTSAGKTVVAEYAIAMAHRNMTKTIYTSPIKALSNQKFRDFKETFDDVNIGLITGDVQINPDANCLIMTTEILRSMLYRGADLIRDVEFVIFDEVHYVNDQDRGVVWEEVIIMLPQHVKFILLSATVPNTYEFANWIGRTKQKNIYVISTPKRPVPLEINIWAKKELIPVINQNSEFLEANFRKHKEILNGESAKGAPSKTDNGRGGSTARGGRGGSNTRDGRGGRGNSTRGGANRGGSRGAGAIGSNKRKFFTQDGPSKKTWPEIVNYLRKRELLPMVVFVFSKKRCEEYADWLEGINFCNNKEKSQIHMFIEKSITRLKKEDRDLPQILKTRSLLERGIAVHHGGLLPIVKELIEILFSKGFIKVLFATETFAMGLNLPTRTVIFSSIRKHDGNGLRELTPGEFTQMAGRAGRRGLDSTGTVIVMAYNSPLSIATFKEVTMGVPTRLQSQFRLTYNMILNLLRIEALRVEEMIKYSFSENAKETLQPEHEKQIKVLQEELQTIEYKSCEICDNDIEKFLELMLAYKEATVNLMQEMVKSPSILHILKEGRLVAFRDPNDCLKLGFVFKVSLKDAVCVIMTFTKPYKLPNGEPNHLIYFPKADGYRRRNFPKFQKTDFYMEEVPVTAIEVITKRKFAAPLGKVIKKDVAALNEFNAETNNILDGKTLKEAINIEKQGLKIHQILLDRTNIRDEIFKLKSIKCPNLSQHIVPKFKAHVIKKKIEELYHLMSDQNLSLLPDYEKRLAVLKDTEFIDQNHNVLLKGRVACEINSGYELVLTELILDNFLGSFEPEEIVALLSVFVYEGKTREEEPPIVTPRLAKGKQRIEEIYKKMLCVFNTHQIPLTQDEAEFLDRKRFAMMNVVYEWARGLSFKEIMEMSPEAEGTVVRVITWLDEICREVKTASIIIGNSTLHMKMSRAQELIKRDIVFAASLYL
# B1: Ctf4 (natural protein, UniProt Q01454 1-927, looked up)
# chain: MVSVIDKLVFDFGGKTLVSLAPDNNTLCVANKNGLTKILKTNNPEEEPETLDSSKLVSSIKCYSNSHFLMTTMQGDALRYNIDSSQEELLARFALPLRDCCVIHSGKMAVFGGDDLELILLELDDETHKKHAIKIDEQVSQISYNSQMNILAVSMINGKVQIFSLTSTIPNKVHELNDYIVANSYDDTHRDKILSNMMDDIDKDNDNDLSETADPDENNVADPEFCAANRICTRVAWHPKGLHFALPCADDTVKIFSIKGYSLQKTLSTNLSSTKAHFIDLQFDPLRGTYIAAVDLNNKLTVWNWETSEIHYTREFKRKITNIAWKIQADSKTLDLVLGTWSGSIAIVQNLAESVVSNIPDQSVAESSTKHGLFVDSESDLENLEGNDDINKSDKLFSDITQEANAEDVFTQTHDGPSGLSEKRKYNFEDEEDFIDDDDGAGYISGKKPHNEHSYSRVHKTHSFPISLANTGKFRYMPFSPAGTPFGFTDRRYLTMNEVGYVSTVKNSEQYSITVSFFDVGRFREYHFEDLFGYDLCFLNEKGTLFGQSKTGQIQYRPHDSIHSNWTKIIPLQAGERITSVAATPVRVIVGTSLGYFRSFNQFGVPFAVEKTSPIVALTAQNYRVFSVHYSQFHGLSYSLSELGTSSKRYYKRECPLPMSLPNINSDMKKDANLDYYNFNPMGIKSLFFSSYGDPCIFGSDNTLLLLSKWRSPEESKWLPILDSNMEIWKMSGGKETTDIHVWPLALAYDTLNCILVKGKHIWPEFPLPLPSEMEIRMPVFVKSKLLEENKAILNKKNEIGADTEAEEGEEDKEIQIPVSMAAEEEYLRSKVLSELLTDTLENDGEMYGNENEVLAALNGAYDKALLRLFASACSDQNVEKALSLAHELKQDRALTAAVKISERAELPSLVKKINNIREARYEQQLK
# B2: Ski8 (natural protein, UniProt Q02793 1-397, looked up)
# chain: MSKVFIATANAGKAHDADIFSVSACNSFTVSCSGDGYLKVWDNKLLDNENPKDKSYSHFVHKSGLHHVDVLQAIERDAFELCLVATTSFSGDLLFYRITREDETKKVIFEKLDLLDSDMKKHSFWALKWGASNDRLLSHRLVATDVKGTTYIWKFHPFADESNSLTLNWSPTLELQGTVESPMTPSQFATSVDISERGLIATGFNNGTVQISELSTLRPLYNFESQHSMINNSNSIRSVKFSPQGSLLAIAHDSNSFGCITLYETEFGERIGSLSVPTHSSQASLGEFAHSSWVMSLSFNDSGETLCSAGWDGKLRFWDVKTKERITTLNMHCDDIEIEEDILAVDEHGDSLAEPGVFDVKFLKKGWRSGMGADLNESLCCVCLDRSIRWFREAGGK
# Legend:
# Assay in all cases: native MS
# native MS = biological target: the molecule itself
# Ski3 = biological target: T1, Ski3
# Ski2 = biological target: T2, Ski2
Binder,stoichiometry N (native MS),stoichiometry N (Ski3),stoichiometry N (Ski2)
B1,3,–,–
B2,–,2,2
